# Data: patent publication US20070105152
# Where two headings read alike, the source gives them in different places.
# T1: AcGG(AcK)APR
# T1 sequence: GGKAPR
# T2: AcGG(AcK)APRKQ
# T2 sequence: GGKAPRKQ
# T3: AcKSTGG(AcK)AP
# T3 sequence: KSTGGKAP
# T4: AcTGG(AcK)APR
# T4 sequence: TGGKAPR
# T5: AcGG(AcK)AP
# T5 sequence: GGKAP
# T6: AcTGG(AcK)AP
# T6 sequence: TGGKAP
# T7: AcSTGG(AcK)APR
# T7 sequence: STGGKAPR
# T8: AcTGG(AcK)APRK
# T8 sequence: TGGKAPRK
# T9: AcSTGG(AcK)AP
# T9 sequence: STGGKAP
# T10: AcGG(AcK)APRK
# T10 sequence: GGKAPRK
# T11: AcKSTGG(AcK)AP
# T11 chain: KSTGGKAP
# T12: AcGG(AcK)APRKQ
# T12 chain: GGKAPRKQ
# T13: AcGG(AcK)AP
# T13 chain: GGKAP
# T14: AcTGG(AcK)APRK
# T14 chain: TGGKAPRK
# T15: AcTGG(AcK)AP
# T15 chain: TGGKAP
# T16: AcGG(AcK)APR
# T16 chain: GGKAPR
# T17: AcSTGG(AcK)APR
# T17 chain: STGGKAPR
# T18: AcGG(AcK)APRK
# T18 chain: GGKAPRK
# T19: AcTGG(AcK)APR
# T19 chain: TGGKAPR
# T20: AcSTGG(AcK)AP
# T20 chain: STGGKAP
# B1: SIRT2 (protein)
# chain: MAEPDPSHPLETQAGKVQEAQDSDSDSEGGAAGGEADMDFLRNLFSQTLSLGSQKERLLDELTLEGVARYMQSERCRRVICLVGAGISTSAGIPDFRSPSTGLYDNLEKYHLPYPEAIFEISYFKKHPEPFFALAKELYPGQFKPTICHYFMRLLKDKGLLLRCYTQNIDTLERIAGLEQEDLVEAHGTFYTSHCVSASCRHEYPLSWMKEKIFSEVTPKCEDCQSLVKPDIVFFGESLPARFFSCMQSDFLKVDLLLVMGTSLQVQPFASLISKAPLSTPRLLINKEKAGQSDPFLGMIMGLGGGMDFDSKKAYRDVAWLGECDQGCLALAELLGWKKELEDLVRREHASIDAQSGAGVPNPSTSASPKKSPPPAKDEARTTEREKPQ
# Key:
# AcGG(AcK)APR [1] = test system: T1, AcGG(AcK)APR
# AcGG(AcK)APRKQ [2] = test system: T2, AcGG(AcK)APRKQ
# AcKSTGG(AcK)AP [3] = test system: T3, AcKSTGG(AcK)AP
# AcTGG(AcK)APR [4] = test system: T4, AcTGG(AcK)APR
# AcGG(AcK)AP [5] = test system: T5, AcGG(AcK)AP
# AcTGG(AcK)AP [6] = test system: T6, AcTGG(AcK)AP
# AcSTGG(AcK)APR [7] = test system: T7, AcSTGG(AcK)APR
# AcTGG(AcK)APRK [8] = test system: T8, AcTGG(AcK)APRK
# AcSTGG(AcK)AP [9] = test system: T9, AcSTGG(AcK)AP
# AcGG(AcK)APRK [10] = test system: T10, AcGG(AcK)APRK
# AcKSTGG(AcK)AP [11] = target: T11, AcKSTGG(AcK)AP
# AcGG(AcK)APRKQ [12] = target: T12, AcGG(AcK)APRKQ
# AcGG(AcK)AP [13] = target: T13, AcGG(AcK)AP
# AcTGG(AcK)APRK [14] = target: T14, AcTGG(AcK)APRK
# AcTGG(AcK)AP [15] = target: T15, AcTGG(AcK)AP
# AcGG(AcK)APR [16] = target: T16, AcGG(AcK)APR
# AcSTGG(AcK)APR [17] = target: T17, AcSTGG(AcK)APR
# AcGG(AcK)APRK [18] = target: T18, AcGG(AcK)APRK
# AcTGG(AcK)APR [19] = target: T19, AcTGG(AcK)APR
# AcSTGG(AcK)AP [20] = target: T20, AcSTGG(AcK)AP
Molecule,Relative kcat/Km (relative to AcTGG(AcK)APRK = 1) (AcGG(AcK)APR [1]),Relative kcat/Km (relative to AcTGG(AcK)APRK = 1) (AcGG(AcK)APRKQ [2]),Relative kcat/Km (relative to AcTGG(AcK)APRK = 1) (AcKSTGG(AcK)AP [3]),Relative kcat/Km (relative to AcTGG(AcK)APRK = 1) (AcTGG(AcK)APR [4]),Relative kcat/Km (relative to AcTGG(AcK)APRK = 1) (AcGG(AcK)AP [5]),Relative kcat/Km (relative to AcTGG(AcK)APRK = 1) (AcTGG(AcK)AP [6]),Relative kcat/Km (relative to AcTGG(AcK)APRK = 1) (AcSTGG(AcK)APR [7]),Relative kcat/Km (relative to AcTGG(AcK)APRK = 1) (AcTGG(AcK)APRK [8]),Relative kcat/Km (relative to AcTGG(AcK)APRK = 1) (AcSTGG(AcK)AP [9]),Relative kcat/Km (relative to AcTGG(AcK)APRK = 1) (AcGG(AcK)APRK [10]),Relative kcat/Km (relative to AcTGG(AcK)APRK = 1) (AcKSTGG(AcK)AP [11]),Relative kcat/Km (relative to AcTGG(AcK)APRK = 1) (AcGG(AcK)APRKQ [12]),Relative kcat/Km (relative to AcTGG(AcK)APRK = 1) (AcGG(AcK)AP [13]),Relative kcat/Km (relative to AcTGG(AcK)APRK = 1) (AcTGG(AcK)APRK [14]),Relative kcat/Km (relative to AcTGG(AcK)APRK = 1) (AcTGG(AcK)AP [15]),Relative kcat/Km (relative to AcTGG(AcK)APRK = 1) (AcGG(AcK)APR [16]),Relative kcat/Km (relative to AcTGG(AcK)APRK = 1) (AcSTGG(AcK)APR [17]),Relative kcat/Km (relative to AcTGG(AcK)APRK = 1) (AcGG(AcK)APRK [18]),Relative kcat/Km (relative to AcTGG(AcK)APRK = 1) (AcTGG(AcK)APR [19]),Relative kcat/Km (relative to AcTGG(AcK)APRK = 1) (AcSTGG(AcK)AP [20])
Trypanosoma brucei Sir2,1.18,1.43,1.81,0.89,1.27,0.74,1.39,1,0.59,1.82,,,,,,,,,,
yeast Sir2,2.53,2.09,2.12,1.72,1.51,1.62,1.6,1,1.83,2.33,,,,,,,,,,
B1,,,,,,,,,,,0.59,0.66,0.56,1,0.55,0.6,0.93,0.68,0.72,0.78
